Holding throughout (test): pull-down
Test [1] deals with T1, His6-Sec31 (aa 1–500) (yeast, UniProt P38968 1-500).
T1 sequence (looked up): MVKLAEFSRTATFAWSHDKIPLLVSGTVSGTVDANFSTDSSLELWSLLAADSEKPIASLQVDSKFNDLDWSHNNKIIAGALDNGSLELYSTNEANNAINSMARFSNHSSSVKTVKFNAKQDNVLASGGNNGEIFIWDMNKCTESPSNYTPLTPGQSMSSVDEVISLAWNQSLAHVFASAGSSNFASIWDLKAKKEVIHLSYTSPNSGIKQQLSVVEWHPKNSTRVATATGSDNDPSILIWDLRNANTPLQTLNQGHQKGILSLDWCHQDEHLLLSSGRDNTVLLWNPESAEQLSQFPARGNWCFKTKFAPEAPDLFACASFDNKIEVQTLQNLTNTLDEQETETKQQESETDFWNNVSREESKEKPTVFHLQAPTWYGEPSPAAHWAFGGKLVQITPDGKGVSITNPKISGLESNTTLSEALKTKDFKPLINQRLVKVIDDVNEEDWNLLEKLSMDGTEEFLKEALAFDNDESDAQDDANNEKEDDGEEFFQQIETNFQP

For test [2], the target named is T2, GST-Sec24 (yeast, UniProt P40482 1-926).
T2 sequence (looked up): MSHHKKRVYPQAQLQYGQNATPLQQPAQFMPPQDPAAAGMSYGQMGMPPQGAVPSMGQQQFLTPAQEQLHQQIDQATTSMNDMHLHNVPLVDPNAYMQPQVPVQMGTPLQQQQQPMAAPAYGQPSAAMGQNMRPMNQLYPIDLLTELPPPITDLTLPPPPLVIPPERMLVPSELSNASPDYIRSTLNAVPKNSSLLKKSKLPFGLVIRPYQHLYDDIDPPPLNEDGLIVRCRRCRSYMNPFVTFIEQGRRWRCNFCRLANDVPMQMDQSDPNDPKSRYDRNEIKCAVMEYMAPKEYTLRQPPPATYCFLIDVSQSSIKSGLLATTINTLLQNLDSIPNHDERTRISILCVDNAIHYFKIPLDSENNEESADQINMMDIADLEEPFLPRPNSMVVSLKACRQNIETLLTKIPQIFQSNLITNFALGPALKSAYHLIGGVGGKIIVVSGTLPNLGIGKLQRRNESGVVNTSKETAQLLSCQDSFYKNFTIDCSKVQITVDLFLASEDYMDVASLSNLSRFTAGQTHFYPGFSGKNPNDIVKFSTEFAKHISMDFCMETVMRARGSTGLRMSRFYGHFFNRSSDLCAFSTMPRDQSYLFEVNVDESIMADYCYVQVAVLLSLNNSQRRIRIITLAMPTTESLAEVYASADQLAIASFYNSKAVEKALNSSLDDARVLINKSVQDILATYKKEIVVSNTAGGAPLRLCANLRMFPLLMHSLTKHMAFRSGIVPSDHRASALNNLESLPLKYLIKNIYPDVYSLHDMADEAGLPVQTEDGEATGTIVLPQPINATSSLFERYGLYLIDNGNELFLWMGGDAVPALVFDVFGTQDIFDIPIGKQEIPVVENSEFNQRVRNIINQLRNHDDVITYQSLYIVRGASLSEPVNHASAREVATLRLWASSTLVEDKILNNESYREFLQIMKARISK

For test [3], the target named is T3, GST-Sec23 (yeast, UniProt P15303 1-768).
T3 sequence (looked up): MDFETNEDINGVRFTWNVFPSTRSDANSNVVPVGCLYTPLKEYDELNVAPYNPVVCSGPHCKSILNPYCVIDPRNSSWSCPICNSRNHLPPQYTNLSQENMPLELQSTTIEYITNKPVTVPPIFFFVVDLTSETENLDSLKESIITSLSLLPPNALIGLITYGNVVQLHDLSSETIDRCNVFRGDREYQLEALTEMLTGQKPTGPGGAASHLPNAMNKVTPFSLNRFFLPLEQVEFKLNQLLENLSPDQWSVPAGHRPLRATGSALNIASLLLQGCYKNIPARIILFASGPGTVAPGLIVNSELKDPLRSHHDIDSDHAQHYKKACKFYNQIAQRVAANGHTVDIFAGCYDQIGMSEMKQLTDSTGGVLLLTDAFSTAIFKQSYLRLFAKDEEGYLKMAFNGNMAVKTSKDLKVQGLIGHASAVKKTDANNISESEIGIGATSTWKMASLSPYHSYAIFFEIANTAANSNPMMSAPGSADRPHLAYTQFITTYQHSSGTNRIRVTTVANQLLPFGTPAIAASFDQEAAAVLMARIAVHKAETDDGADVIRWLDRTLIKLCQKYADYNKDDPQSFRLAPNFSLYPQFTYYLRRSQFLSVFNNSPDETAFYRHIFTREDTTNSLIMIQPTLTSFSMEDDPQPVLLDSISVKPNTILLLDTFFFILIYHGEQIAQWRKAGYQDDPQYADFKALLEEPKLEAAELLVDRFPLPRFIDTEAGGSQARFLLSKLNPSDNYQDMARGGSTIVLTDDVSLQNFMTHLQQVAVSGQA

The text below walks through data of PMC4694752 (Molecular Biology of the Cell, 2016).

B1: GST-auxilin-TPR domain (aa 363–561) (domain or fragment, yeast, UniProt Q06677 363-561, looked up)
chain: TIPISDIELSGYNEFKAKGTSLFKNGDYINSLQEYEKSLNTLPLNHPLRIIALSNIIASQLKIGEYSKSIENSSMALELFPSSKAKWKNKISNSDPERSFNDIWPKIMIRRAESFEHLESFKKALETYQELIKKNFFDDKIMQGKRRCQDFINPPPVKKSMPVKKKTTTTSPATKKQNLTASSSNSPISVDSTSEIKKR
For B1, in test [1], the binding result is “binds”.

B2: His6-auxilin (natural protein, yeast, UniProt Q06677 1-668, looked up)
chain: MSDPFAHLLTSLKNKDSASASKETTPQSSNSPSITGSAVADVARTDKSPNDSLHSISAPPLIPSPKVDFSAPPLVPTNSTTKSNTANNTPPSALANTDDDFNQLFGMGTVTTTDTIQKPDEDYYGSKEDHLYNGDDALVDEVKDMEIARLMSLGLSIEEATEFYENDVTYERYLEILKSKQKERNDLAIRKKESGIKMEKSGLSNIVGTDSNNLFSMATDFFNKGKKLVDQWTSFPPEANDRLNNYSKTHDKVEDYDLPQVNDSPNRILFEDNEVVENLPPADNPDQDLLTDFETKIDITKRTAPDVSHSSSPTSGILIEENSRRNEPLIEDSLLDFSEGNLTNSKSNEDSTLFNENSNTDSTIPISDIELSGYNEFKAKGTSLFKNGDYINSLQEYEKSLNTLPLNHPLRIIALSNIIASQLKIGEYSKSIENSSMALELFPSSKAKWKNKISNSDPERSFNDIWPKIMIRRAESFEHLESFKKALETYQELIKKNFFDDKIMQGKRRCQDFINPPPVKKSMPVKKKTTTTSPATKKQNLTASSSNSPISVDSTSEIKKRELENAKLALYDKVFEKISSWKDGKDDDIRHLLANLSSLLTWCNWKDVSMQDLVMPKRVKITYMKAVAKTHPDKIPESLSLENKMIAENIFSTLSIAWDKFKLQNDIN
As to B2, the binding result in test [2] and in test [3] was “binds” each time.
